Experimental data published in patent US20240109955A1.

Experiments:
Assay in all cases: cell-based or functional assay
[1] = biological target: SARS-CoV-2 spike (S) protein, Omicron sublineage BF.7 (SARS-CoV-2)
[2] = biological target: SARS-CoV-2 spike (S) protein, Omicron sublineage XBB1.5 (SARS-CoV-2)
[3] = biological target: SARS-CoV-2 Omicron BA.4/5 spike protein (SARS-CoV-2)
[4] = biological target: SARS-CoV-2 Omicron XBB spike protein (SARS-CoV-2)
[5] = biological target: SARS-CoV-2 Omicron BQ.1 spike protein (SARS-CoV-2)
[6] = biological target: SARS-CoV-2 Omicron BA.2.75.2 spike protein (SARS-CoV-2)
[7] = biological target: SARS-CoV-2 Omicron BQ.1.1 spike protein (SARS-CoV-2)

| Binder | IC50, pseudovirus neutralization [1] | IC80, pseudovirus neutralization [1] | IC50, pseudovirus neutralization [2] | IC80, pseudovirus neutralization [2] | IC50, pseudovirus neutralization [3] | IC80, pseudovirus neutralization [3] | IC50, pseudovirus neutralization [4] | IC80, pseudovirus neutralization [4] | IC50, pseudovirus neutralization [5] | IC80, pseudovirus neutralization [5] | IC50, pseudovirus neutralization [6] | IC80, pseudovirus neutralization [6] | IC50, pseudovirus neutralization [7] | IC80, pseudovirus neutralization [7] |
| --- | --- | --- | --- | --- | --- | --- | --- | --- | --- | --- | --- | --- | --- | --- |
| A46 + E12 + B8 (protein) VH 1: QVQLVESGGGVVQPGRSLRLSCAASGFTLSSYGMHWVRQAPGKGLEWVAVISYDGSNKYYVDSVKGRFTISRDNSKNTLYLQMNSLRAEDTAVYYCRWAYWELLPDYYYGMDVWGQGTTVTVSS VL 1: QTVVTQEPSFSVSPGGTVTLTCGLSSGSVSTAYFPSWYQQTPGQAPRTLIYGTNTRSSGVPDRFSGSILGNKAALTITGAQADDESDYYCVLYMGRGIVVFGGGTKLTVL VH 2: EVQLVESGGGLIQPGGSLRLSCAASGVIVSYNYMNWVRQAPGKGLEWVSVIYSGGSTFYADSVRGRFTISRDNSKNTLYLQMNSLRAEDTAVYYCARDLGPAGAFDIWGLGTMVTVSS VL 2: EIVLTQSPGTLSLSPGETATLSCRASQSFSSDLAWYQQKPGQAPRLLIYGASSRATGIPDRFSGSGSGTDFTLTISRLEPADFAVYYCQQYGSSPPVTFGGGTKVEIK VH 3: EVQLVESGGALIQPGGSLRLSCAASGIIVSANYMSWVRQAPGKGLEWVSVIYSGGSTFYADSVKGRFTISRDNSKNTLYLEMNSLRAEDTAVYYCARDAPILGVSDWGQGTLVTVSS VL 3: EIVMTQSPAILSVSPGERATLSCRASQSVAINLAWYQQKPGQAPRLLIYAASSRATGIPGRFSGSGSETNFTLTISSLQSGDFAVYYCQQYITWPPSYTFGQGTKLEIK | 12.9 nM | 33.8 nM | 12 nM | 33 nM | – | – | – | – | – | – | – | – | – | – |
| MX1046 (bispecific antibody) chain 1: EIVLTQSPGTLSLSPGETATLSCRASQSFSSDLAWYQQKPGQAPRLLIYGASSRATGIPDRFSGSGSGTDFTLTISRLEPADFAVYYCQQYGSSPPVTFGGGTKVEIKGGSSGDTVMTQSPLSLPVTPGEPASISCRSSQSLLNSNGYNYLDWYVQKPGQSPQLLIYLGSNRASGVPDRFSGSGSGTDFTLKISRVEAEDVGVYYCMQPLQTPLFTFGPGTKVEIKGGGGSGGSGSGGGGSASGSGQVTLRESGPALVKPTQTLTLTCTFSGFSLSTRGVCVSWIRQPPGKALEWLAFIDWDDDKYYNTSLKTRLTISKDTSKNQVVLTMTNVHPVDTATYYCARISSHHGSSWCTTFDYWGQGALVTVSAGGSSGEVQLVESGGGLIQPGGSLRLSCAASGVIVSYNYMNWVRQAPGKGLEWVSVIYSGGSTFYADSVRGRFTISRDNSKNTLYLQMNSLRAEDTAVYYCARDLGPAGAFDIWGLGTMVTVSSASGGSGDKTHTCPPCPAPELLGGPSVFLFPPKPKDTLMISRTPEVTCVVVDVSHEDPEVKFNWYVDGVEVHNAKTKPREEQYNSYVVSVLTVLHQDWLNGKEYKCKVSNKALPAPIEKTISKAKGQPREPQVYTLPPCRDELTKNQVSLWCLVKGFYPSDIAVEWESNGQPENNYKTTPPVLDSDGSFFKKLTVDKSRWQQGNVFSCSVLHEALHSHYTQKSLSLSPG chain 2: DTVMTQSPLSLPVTPGEPASISCRSSQSLLNSNGYNYLDWYVQKPGQSPQLLIYLGSNRASGVPDRFSGSGSGTDFTLKISRVEAEDVGVYYCMQPLQTPLFTFGPGTKVEIKGGSSGEIVLTQSPGTLSLSPGETATLSCRASQSFSSDLAWYQQKPGQAPRLLIYGASSRATGIPDRFSGSGSGTDFTLTISRLEPADFAVYYCQQYGSSPPVTFGGGTKVEIKGGGGSGGSGSGGGGSASGSGEVQLVESGGGLIQPGGSLRLSCAASGVIVSYNYMNWVRQAPGKGLEWVSVIYSGGSTFYADSVRGRFTISRDNSKNTLYLQMNSLRAEDTAVYYCARDLGPAGAFDIWGLGTMVTVSSGGSSGQVTLRESGPALVKPTQTLTLTCTFSGFSLSTRGVCVSWIRQPPGKALEWLAFIDWDDDKYYNTSLKTRLTISKDTSKNQVVLTMTNVHPVDTATYYCARISSHHGSSWCTTFDYWGQGALVTVSAASGGSGDKTHTCPPCPAPELLGGPSVFLFPPKPKDTLMISRTPEVTCVVVDVSHEDPEVKFNWYVDGVEVHNAKTKPREEQYNSYVVSVLTVLHQDWLNGKEYKCKVSNKALPAPIEKTISKAKGQPREPQVCTLPPSRDELTKNQVSLSCAVKGFYPSDIAVEWESNGQPENNYKTTPPVLDSDGSFFLVSKLTVDKSRWQQGNVFSCSVLHEALHSHYTQKSLSLSPG | – | – | – | – | 0.9 ng/mL | 1.56 ng/mL | 1.26 ng/mL | 2.88 ng/mL | 1.66 ng/mL | 4.08 ng/mL | 0.36 ng/mL | 1.29 ng/mL | 1.23 ng/mL | 3.97 ng/mL |
| MX1045 (bispecific antibody) chain 1: EIVLTQSPGTLSLSPGETATLSCRASQSFSSDLAWYQQKPGQAPRLLIYGASSRATGIPDRFSGSGSGTDFTLTISRLEPADFAVYYCQQYGSSPPVTFGGGTKVEIKGGSSGQTVVTQEPSFSVSPGGTVTLTCGLSSGSVSTAYFPSWYQQTPGQAPRTLIYGTNTRSSGVPDRFSGSILGNKAALTITGAQADDESDYYCVLYMGRGIVVFGGGTKLTVLGGGGSGGSGSGGGGSASGSGQVQLVESGGGVVQPGRSLRLSCAASGFTLSSYGMHWVRQAPGKGLEWVAVISYDGSNKYYVDSVKGRFTISRDNSKNTLYLQMNSLRAEDTAVYYCRWAYWELLPDYYYGMDVWGQGTTVTVSSGGSSGEVQLVESGGGLIQPGGSLRLSCAASGVIVSYNYMNWVRQAPGKGLEWVSVIYSGGSTFYADSVRGRFTISRDNSKNTLYLQMNSLRAEDTAVYYCARDLGPAGAFDIWGLGTMVTVSSASGGSGDKTHTCPPCPAPELLGGPSVFLFPPKPKDTLMISRTPEVTCVVVDVSHEDPEVKFNWYVDGVEVHNAKTKPREEQYNSYVVSVLTVLHQDWLNGKEYKCKVSNKALPAPIEKTISKAKGQPREPQVYTLPPCRDELTKNQVSLWCLVKGFYPSDIAVEWESNGQPENNYKTTPPVLDSDGSFFKKLTVDKSRWQQGNVFSCSVLHEALHSHYTQKSLSLSPG chain 2: QTVVTQEPSFSVSPGGTVTLTCGLSSGSVSTAYFPSWYQQTPGQAPRTLIYGTNTRSSGVPDRFSGSILGNKAALTITGAQADDESDYYCVLYMGRGIVVFGGGTKLTVLGGSSGEIVLTQSPGTLSLSPGETATLSCRASQSFSSDLAWYQQKPGQAPRLLIYGASSRATGIPDRFSGSGSGTDFTLTISRLEPADFAVYYCQQYGSSPPVTFGGGTKVEIKGGGGSGGSGSGGGGSASGSGEVQLVESGGGLIQPGGSLRLSCAASGVIVSYNYMNWVRQAPGKGLEWVSVIYSGGSTFYADSVRGRFTISRDNSKNTLYLQMNSLRAEDTAVYYCARDLGPAGAFDIWGLGTMVTVSSGGSSGQVQLVESGGGVVQPGRSLRLSCAASGFTLSSYGMHWVRQAPGKGLEWVAVISYDGSNKYYVDSVKGRFTISRDNSKNTLYLQMNSLRAEDTAVYYCRWAYWELLPDYYYGMDVWGQGTTVTVSSASGGSGDKTHTCPPCPAPELLGGPSVFLFPPKPKDTLMISRTPEVTCVVVDVSHEDPEVKFNWYVDGVEVHNAKTKPREEQYNSYVVSVLTVLHQDWLNGKEYKCKVSNKALPAPIEKTISKAKGQPREPQVCTLPPSRDELTKNQVSLSCAVKGFYPSDIAVEWESNGQPENNYKTTPPVLDSDGSFFLVSKLTVDKSRWQQGNVFSCSVLHEALHSHYTQKSLSLSPG | – | – | – | – | 2.68 ng/mL | 6.06 ng/mL | 6.09 ng/mL | 18 ng/mL | 6.02 ng/mL | 22.3 ng/mL | 2.91 ng/mL | 5.43 ng/mL | 1.5 ng/mL | 8.57 ng/mL |
